# B1: His6-SUMO-tagged SH3 to PDZ domains of Shank2 (R520-D727), WT [not stated (human or rat cDNA cloned)] / synthetic peptide of the complete PDZ ligand of GKAP (last 15 amino acids of GKAP/SAPAP1) [not stated] (parent)
# chain 1: RKLYSAVPGRLFVAVKPYQPQVDGEIPLHRGDRVKVLSIGEGGFWEGSARGHIGWFPAECVEEVQCKPRDSQAETRADRSKKLFRHYTVGSYDSFDTSSDCIIEEKTVVLQKKDNEGFGFVLRGAKADTPIEEFTPTPAFPALQYLESVDEGGVAWQAGLRTGDFLIEVNNENVVKVGHRQVVNMIRQGGNHLVLKVVTVTRNLDPDD
# chain 2: ADSIEIYIPEAQTRL
# Variants of: B1
# Assay: ITC
# Details: with synthetic peptide of the complete PDZ ligand of GKAP (last 15 amino acids of GKAP/SAPAP1); parent: 1
row,ratio to parent,Variant
1,1.3,chain 1 RKLYSAVPGRLFVAVKPYQPQVDGEIPLHRGDRVKVLSIGEGGFWEGSARGHIGWFPAECVEEVQCKPRDSQAETRADRSKKLFRHYTVGSYDSFDTSSDCIIEEKTVVLQKKDNEGFGFVLRGAKADTPIEEFTPTPAFPALQYLESVDEGGVAWQAGLRTGDFLIEVNSENVVKVGHRQVVNMIRQGGNHLVLKVVTVTRNLDPDD [chain 1 N171S]
2,2.8,chain 1 RKLYSAVPGRLFVAVKPYQPQVDGEIPLHRGDRVKVLSIGEGGFWEGSARGHIGWFPAECVEEVQCKPRDSQAETRADRSKKLFRHYTVGYYDSFDTSSDCIIEEKTVVLQKKDNEGFGFVLRGAKADTPIEEFTPTPAFPALQYLESVDEGGVAWQAGLRTGDFLIEVNNENVVKVGHRQVVNMIRQGGNHLVLKVVTVTRNLDPDD [chain 1 S91Y]
3,2.6,chain 1 RKLYSAVPGRLFVAVKPYQPQVDGEIPLHRGDRVKVLSIGEGGFWEGSARGHIGWFPAECVEEVQCKPRDSQAETRADRSKKLFRHYTVGSYDSFDTSSDCIIEEKTVVLQKKDNEGFGFVLRGAKADTPIEEFTPTPAFPALQYLESVDEGGVAWQAGLRTGDFLIEVNNENVVKVGHRQVVNMIRQGGNHLVLKVFTVTRNLDPDD [chain 1 V198F]

# From publication PMC11371640, “Structural deficits in key domains of Shank2 lead to alterations in postsynaptic nanoclusters and to a neurodevelopmental disorder in humans” (Molecular Psychiatry, 2022)
